Residues, ends and D or L forms follow the SMILES beside them.
How the values were obtained:
[1] = target: T1, human ezrin FERM-domain (residues 1–295) (Homo sapiens, UniProt P15311); assay: Microscale thermophoresis (MST), binding to FERM-Alexa488; details: Z-test for population means; for Affinity for FERM, full-length AQP compared with its C-terminal tail: significant if p < 0.05
T1 construct: human ezrin FERM-domain (residues 1–295); 8xHis-tag (N); TEV cleavage site (N); made in house; host or cells: E. coli BL21*
T1 sequence (P15311 1-295): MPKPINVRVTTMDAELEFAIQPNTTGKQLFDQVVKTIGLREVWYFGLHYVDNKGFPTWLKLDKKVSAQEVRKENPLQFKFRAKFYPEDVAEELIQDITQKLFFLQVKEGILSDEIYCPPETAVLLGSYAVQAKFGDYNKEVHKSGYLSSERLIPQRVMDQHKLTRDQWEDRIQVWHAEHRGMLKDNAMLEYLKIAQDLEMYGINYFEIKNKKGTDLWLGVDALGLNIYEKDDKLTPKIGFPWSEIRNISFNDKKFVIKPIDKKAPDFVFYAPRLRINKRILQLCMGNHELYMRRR
Experimental: For each AQP, a 1:1 dilution series was made resulting in 12 samples with a concentration range of 0.0419–86.0 μM for AQP2 and 0.029–60.6 μM for AQP5. The samples were mixed with an equal volume of FERM that had been labelled with Alexa-488, transferred to MST capillaries, and MST traces were recorded (Figure S1). From these traces, the difference in normalized fluorescence before and after heating was used to generate a binding curve for each AQP from which the dissociation constant (Kd) could be determined (Figure 3a).
This artefact became even more prominent when the AQP concentration was increased further. As a result, AQP concentrations that would lead to saturation could not be used in the case of AQP5, wherefore the estimated Kd-value should be evaluated with caution.
Next, we set out to investigate if the interaction between FERM and AQP2/AQP5 is mediated by the AQP C-termini as previously proposed. For this purpose, we expressed the AQP2 and AQP5 C-terminal tails (residues 227–271 and 228–265 for AQP2 and AQP5 respectively) as GST-fusion constructs in E. coli. The purified GST-AQP constructs were then cleaved with thrombin, allowing AQP2 and AQP5 C-termini to be separated from the GST-tag. For each AQP C-terminal peptide, a 1:1 dilution series was made resulting in 12 samples for AQP2 (0.072–294.5 μM) and 16 samples (0.001–337.5 μM) for AQP5, mixed with fluorescently labelled FERM, and MST-traces were recorded and analyzed as described above (Figure S1). […] This confirms the C-terminus as the region responsible for the FERM-interaction for both AQP2 and AQP5.
The E. coli codon-optimized gene for the human ezrin FERM-domain (residues 1–295) was synthesized (Genscript, Piscataway, NJ, USA) and cloned into pET15b using the NdeI and BamHI sites. The final construct contained an N-terminal 8xHis-tag followed by a TEV cleavage site. The plasmid was transformed into calcium-competent E. coli cells BL21* by heat shock. 2x1L LB-media supplemented with 100 μg/mL ampicillin was inoculated with a 5 mL overnight culture. […]

Ezrin = details: co-IP and PLA, NS-SV-AC cells; ref [31]; cited from earlier work
Excerpt: (§1) Several mammalian AQP isoforms have been proposed to directly interact with Ezrin during trafficking.

[2] = target: T2, human ezrin FERM-domain (residues 1-295), labelled with Alexa-488 (human, UniProt P15311 1-295, cysteine-reactive C5 maleimide-Alexa 488 on cysteines); assay: MST; AQP (full-length or C-terminal peptide) in a 1:1 dilution series mixed with FERM-Alexa488 at 0.125 uM (0.129 uM for the AQP5 C-terminus); Monolith NT.115, room temperature, LED and MST power 80%; premium capillaries (full-length AQP) or standard capillaries (peptides); three dilution series; one-to-one binding model on monomeric AQP concentration; details: both partners purified
T2 construct: ezrin, human, FERM-domain, residues 1-295; the construct has an N-terminal 8xHis-tag followed by a TEV cleavage site; No TEV cleavage is described in the purification; codon-optimised synthetic gene in pET15b; also called FERM-Alexa488; source: E. coli BL21*, purified (His-trap)
T2 sequence (P15311 1-295): as above

LIP5 = details: compared with construct truncated immediately after the amphipathic helix; ref [36] Roche et al., 2017; cited from earlier work
Excerpt: Moreover, introduction of pho ...

Ezrin FERM-domain = details: co-IP and pull-down; ref [30]; cited from earlier work
Excerpt: as §1

Q: For `CC[C@H](C)[C@H](NC(=O)[C@H](C)NC(=O)[C@@H](NC(=O)[C@H](CCCNC(=N)N)NC(=O)[C@H](CCC(=O)O)NC(=O)[C@H](CO)NC(=O)[C@H](CC(C)C)NC(=O)[C@H](CO)NC(=O)[C@H](CC(C)C)NC(=O)[C@H](CO)NC(=O)[C@H](CC(N)=O)NC(=O)[C@H](CO)NC(=O)CN)C(C)C)C(=O)N[C@H](C(=O)N[C@@H](CCCCN)C(=O)NCC(=O)N[C@H](C(=O)N[C@@H](Cc1ccc(O)cc1)C(=O)N[C@@H](CCC(=O)O)C(=O)N1CCC[C@H]1C(=O)N[C@@H](CC(=O)O)C(=O)N[C@@H](CCC(=O)O)C(=O)N[C@@H](CC(=O)O)C(=O)N[C@@H](Cc1c[nH]c2ccccc12)C(=O)N[C@@H](CCC(=O)O)C(=O)N[C@@H](CCC(=O)O)C(=O)N[C@@H](CCC(N)=O)C(=O)N[C@@H](CCCNC(=N)N)C(=O)N[C@@H](CCC(=O)O)C(=O)N[C@@H](CCC(=O)O)C(=O)N[C@@H](CCCNC(=N)N)C(=O)N[C@@H](CCCCN)C(=O)N[C@@H](CCCCN)C(=O)N[C@H](C(=O)N[C@@H](CCSC)C(=O)N[C@@H](CCC(=O)O)C(=O)N[C@@H](CC(C)C)C(=O)N[C@H](C(=O)N[C@H](C(=O)N[C@@H](CCCNC(=N)N)C(=O)O)[C@@H](C)O)[C@@H](C)O)[C@@H](C)O)[C@@H](C)O)[C@@H](C)CC` [AQP5 C-terminal peptide] (H-GSNSLSLSERVAIIKGTYEPDEDWEEQREERKKTMELTTR-OH; N-terminus and C-terminus assumed), which “Affinity for FERM, AQP5 C-terminal peptide compared with AQP2 C-terminal peptide” value [1] is on record?
A: somewhat higher (p < 0.05)

Q: For “full-length AQP5: human aquaporin 5, untagged, recombinantly produced in Pichia pastoris”, which “Interaction of AQP5 with ezrin” value (Ezrin) is on record?
A: identified an interaction

Q: What about the “Affinity for FERM, full-length AQP compared with its C-terminal tail” value [1] of the same molecule?
A: significant difference between full-length AQP5 and the AQP5 C-terminal tail (p < 0.05)

B1: full-length human AQP2 (natural protein, UniProt P41181 1-271, looked up)
chain: MWELRSIAFSRAVFAEFLATLLFVFFGLGSALNWPQALPSVLQIAMAFGLGIGTLVQALGHISGAHINPAVTVACLVGCHVSVLRAAFYVAAQLLGAVAGAALLHEITPADIRGDLAVNALSNSTTAGQAVTVELFLTLQLVLCIFASTDERRGENPGTPALSIGFSVALGHLLGIHYTGCSMNPARSLAPAVVTGKFDDHWVFWIGPLVGAILGSLLYNYVLFPPAKSLSERLAVLKGLEPDTDWEEREVRRRQSVELHSPQSLPRGTKA
notes: aquaporin 2, human, full-length, with an uncleavable His-tag attached to the N-terminus; kept in detergent (0.2% NG); The Kd is fitted on the monomeric AQP concentration; also called Aquaporin 2; source: Pichia pastoris, purified (NG-solubilised membranes, HisTrap, SEC); not shown: His-tag, N-terminal, kept
Q: Which Kd [2] does the source give for B1 here?
A: 7.8 ± 3.8 µM

B2: AQP2 C-terminal tail (residues 227-271) (peptide, UniProt P41181 227-271, looked up)
chain: AKSLSERLAVLKGLEPDTDWEEREVRRRQSVELHSPQSLPRGTKA
notes: aquaporin 2, human, C-terminal tail, residues 227-271; also called AQP2 C-terminal peptide; AQP2 C-terminus; source: E. coli BL21*, GST fusion purified (GSTrap), cleaved with thrombin, separated from GST
Q: Which Kd [2] does the source give for B2 here?
A: 8.7 ± 2.4 µM

B3: AQP5 C-terminal tail (residues 228-265) (peptide, UniProt P55064 228-265, looked up)
chain: NSLSLSERVAIIKGTYEPDEDWEEQREERKKTMELTTR
notes: aquaporin 5, human, C-terminal tail, residues 228-265; Cloned into pET41a (SpeI, AvrII) with a thrombin site (LVPRGS) between GST and the AQP5 C-terminus; also called AQP5 C-terminal peptide; AQP5 C-terminus; source: E. coli BL21*, GST fusion purified (GSTrap), cleaved with thrombin, separated from GST
Q: For B3, which Kd [2] is on record?
A: 2.9 ± 0.89 µM

B4: full-length AQP2: human aquaporin 2, recombinantly produced in Pichia pastoris, His-tag at the N-terminus (protein)
chain: B1 chain
modifications: left off: His-tag, N-terminal, kept
notes: human aquaporin 2, recombinantly produced in Pichia pastoris, His-tag at the N-terminus
Q: Which “Affinity for LIP5” value (LIP5) does the source give for B4 here?
A: higher affinity

Q: And the “Interaction of AQP2 C-terminal tail with ezrin FERM-domain” value (Ezrin FERM-domain)?
A: direct interaction

Q: And the “Affinity for FERM, full-length AQP compared with its C-terminal tail” value [1]?
A: highly similar

From paper PMC11277499, “Structural Basis for the Interaction between the Ezrin FERM-Domain and Human Aquaporins” (International Journal of Molecular Sciences, 2024)
